Values quoted from earlier work as cited in publication PMC4615603.

Biological target: Nef (Human immunodeficiency virus 1) (UniProt P04324)

Hck SH3 (from UniProt P08631)
Kd: 0.12 µM
